The test system of data set [1] is MS2 coat protein. Briefly: apparent KD of MS2 coat protein, switch ON state; designed switch direction (-1 OFF switch, 1 ON switch): -1; higher = weaker reporter binding. The conditions noted are these: FMN input: 0 or 200 uM; Eterna round: R93 (includes R88 designs). Put shortly: (§1)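 With or without constant ligand, designed RNA switches in 100 mM Tris-HCl pH 7.5, 80 mM KCl and 4 mM MgCl2 were titrated with SNAP-549-labelled MS2 coat protein. Concentrations went up in twofold steps from 0.7 or 1.5 nM to 3 µM. The switches had been transcribed on-chip from Illumina sequencing clusters, and apparent KD is the per-design median of normalised cluster binding-curve fits.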

The subject of data set [2] is MS2 coat protein. Briefly: apparent KD of MS2 coat protein, switch OFF state (with FMN for OFF switches, without FMN for ON switches); designed switch direction (-1 OFF switch, 1 ON switch): -1; higher = weaker reporter binding. The conditions noted are these: FMN input: 0 or 200 uM; Eterna round: R93 (includes R88 designs). Put shortly:
as §1

The test system of data set [3] is MS2 coat protein. In words: apparent KD of MS2 coat protein; designed switch direction (-1 OFF switch, 1 ON switch): 1; higher = weaker reporter binding. The conditions noted are these: Eterna round: R95; input ligand: microRNA oligo, concentration not stated. In short, it runs like this:
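Transcription of designed RNA switches on Illumina chips was done by stalled E. coli RNA polymerase. SNAP-549-labelled MS2 coat protein was then titrated in doubling steps from 0.7 or 1.5 nM to 3 µM, with steps of 0.8–1.5 h at the lowest and 10–20 min at the highest concentration. The per-design median over clusters of curve-fitted normalised fluorescence is reported as apparent KD.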

In the case of “AAAAAAAAAGGAUAUAAAAAAAAAAGUCAGGAUAUAGGAAACUAGAAGGGACAUGAGGAUCACCCAUGUAAAAA [Meechl Ex4 R2 m0]”, the “apparent KD of MS2 coat protein” value worked out at 63.5 nM in the data set on MS2 coat protein [1] and 40.8 nM with MS2 coat protein [2]. Consider “AAAAAACAUGAGGAUCACCCAUGUAAGGAUAUGCAAGCAAGAAGAAAGAACAGAAAAAGCAGAAGGUACAAAAA [Amethyst 72]”, for which the “apparent KD of MS2 coat protein” value in the data set with MS2 coat protein [1] amounted to 25.3 nM; with MS2 coat protein [2], 35.9 nM. On to “AAAAAACAUGAGGAUCACCCAUGUAAGGAUAUGCUAGGAAAAAGAAAAAUAAAAACUAGCAGAAGGUACAUAAA [JL wbt mod 10]”, for which the “apparent KD of MS2 coat protein” value turned out to be 25.3 nM in the data set with MS2 coat protein [1] and 30.6 nM in the data set with MS2 coat protein [2].

As for “AAAAAACAUGAGGAUCACCCAUGUAAGGAUAUGCUGAAAAAAACCUGGAAAACAGGCAGCAGAAGGUACAAAAA [66%, Wbt, 36]”, the “apparent KD of MS2 coat protein” value in the data set on MS2 coat protein [1] stood at 23.9 nM; in the data set with MS2 coat protein [2], 35.6 nM.

Turning to “AAAAAACAUGAGGAUCACCCAUGUAAGGAUAUGUAAAAUAAAAGAAAAAUAAAGAAAAGCAGAAGGUAUAUGAA [JL wbt mod 13]”, the results for the “apparent KD of MS2 coat protein” value in the data set with MS2 coat protein [1] and in the data set on MS2 coat protein [2] were 27.6 nM and 40.7 nM, respectively. On the same counts, the results for “AAAAAACAUGAGGAUCACCCAUGUCAGGAUAUCCGGUUCUUGAAAAAAAAGAGGCGUUGGAGAAGGGACAUUCC [Chica Displaced 13 - Jieux - Exclusion 1]” are 25 nM and 38.7 nM. As for “AAAAAACAUGAGGAUCACCCAUGUCAGGAUAUCGAAAGAAAAAAAAAGAAAAAAAAAACGAGAAGGGACAAAAA [Amethyst 28]”, the results for the “apparent KD of MS2 coat protein” value in the data set with MS2 coat protein [1] and in the data set on MS2 coat protein [2] were 56.1 nM and 30.3 nM, respectively. On the same counts, the results for “AAAAAACAUGAGGAUCACCCAUGUCAGGAUAUGCGAAGCAAAAAAAAAAAAAAGCGAAGCAGAAGGGACUAAAA [Exclusion1 Malc#5]” are 38.2 nM and 32.9 nM. “AAAAAACAUGAGGAUCACCCAUGUGAGGAUAUACUAAACAAAAAAAACAAAAACAAAUGUAGAAGGCACAAAAA [Amethyst 36]”: the “apparent KD of MS2 coat protein” value with MS2 coat protein [1] is 19 nM; in the data set with MS2 coat protein [2] it was 23 nM. The corresponding values for “AAAAAACAUGAGGAUCACCCAUGUGAGGAUAUCGAAAAGUCAAAGAAAAAGACGAAAACGAGAAGGCACAAAAA [Mat - Mod of Eli 2]” are 28.1 nM and 43.6 nM. The corresponding values for “AAAAAACAUGAGGAUCACCCAUGUGAGGAUAUCGAUAUUAAAGACACCCACUUAAUGGCGAGAAGGCGCAAAAA [Brourd 613 Mod 20 - Jieux - Exclusion 1]” are 25.4 nM and 26.5 nM. With “AAAAAACAUGAGGAUCACCCAUGUGAGGAUAUCGCUAGUGAGGCCAUAGUGUCAGUGAUGAGAAGGCACAUAAA [Brourd 613 Mod 9 - Jieux - Exclusion 1]”, the “apparent KD of MS2 coat protein” value came out at 37.7 nM in the data set with MS2 coat protein [1] and 30.8 nM in the data set on MS2 coat protein [2]. For “AAAAAACAUGAGGAUCACCCAUGUGAGGAUAUCUGUAUCCAAAAGGAAGUGUAGGAUCGGAGAAGGCACUAGGA [Banishment 1 - Jieux - Exclusion 1]”, the results for the “apparent KD of MS2 coat protein” value with MS2 coat protein [1] and in the data set with MS2 coat protein [2] were 36.5 nM and 52.3 nM, respectively. On the same counts, the results for “AAAAAACAUGAGGAUCACCCAUGUGAGGAUAUCUGUAUUCAAUCCUCGGAUUGAAUACAGAGAAGGCACAUGGG [Ex1: 609]” are 13.9 nM and 14.2 nM. The corresponding values for “AAAAAACAUGAGGAUCACCCAUGUGAGGAUAUGAACGAAAUAAAAUAAAAAUAAAAGUUCAGAAGGCACAAAAA [Mat - Exclusion 1 - Eli mod - D11]” are 33.2 nM and 44.7 nM.

For the sequence “AAAAAACAUGAGGAUCACCCAUGUGAGGAUAUGCAAAAGAAAAGAAAAGAAAGAAGAAGCAGAAGGUACAAGAA [Shepseskare Isi]”, the “apparent KD of MS2 coat protein” value with MS2 coat protein [1] was found to be 22.6 nM; in the data set on MS2 coat protein [2], 27.7 nM. Turning to “AAAAAACAUGAGGAUCACCCAUGUGAGGAUAUGCUAUGGAAAAUAAAAAUAAAACAUAGCAGAAGGCACAAUGU [Denovo 5]”, the “apparent KD of MS2 coat protein” value with MS2 coat protein [1] worked out at 50.9 nM; with MS2 coat protein [2], 85.2 nM. As to “AAAAAACAUGAGGAUCACCCAUGUGAGGAUAUGCUGCGAAUAAAGAAAGAAGAAAGCAGCAGAAGGCACACCAA [Amethyst 77]”, the figures for the “apparent KD of MS2 coat protein” value in the data set on MS2 coat protein [1] and with MS2 coat protein [2] were 26.5 nM and 45.6 nM, respectively. Turning to “AAAAAACAUGAGGAUCACCCAUGUGAGGAUAUGUAUAUCCCUAAAAAAGUGUGGGACUACAGAAGGCACUUGGA [Atanri]”, the “apparent KD of MS2 coat protein” value in the data set with MS2 coat protein [1] stood at 43.3 nM; in the data set on MS2 coat protein [2] it was 122 nM. For the sequence “AAAAACAUAGGAUAUACAUGAGGAUCACCCAUGUUAAAAUAAAGAAAGGGAGAAAUAAGUAGAAGGAUGAAAAA [Meechl Ex3 3]”, the “apparent KD of MS2 coat protein” value with MS2 coat protein [1] stood at 26.5 nM; in the data set on MS2 coat protein [2], 31.2 nM. The corresponding values for “AAAAACCGAGGAUAUACAUGAGGAUCACCCAUGUGAAAAAAAAAAAAGAGGAAAAGAUGUAGAAGGCGGAAAAA [65%, Moding Exclusion3-cac2, 17]” are 33.9 nM and 44.1 nM. “AAAAAGACAGGAUAUACGUGAAAAAUAAAAAUGUAAAAAAAACAUGAGGAUCACCCAUGUAGAAGGGUCAAAAA [Ecx-I 62% 3]”: the figures for the “apparent KD of MS2 coat protein” value in the data set on MS2 coat protein [1] and in the data set on MS2 coat protein [2] were 59.3 nM and 61.8 nM, respectively. Turning to “AAAAAGAUAGGAUAUACGUACAUGUCAAAAGACGUGAAGGGACAUGAGGAUCACCCAUGUAGAAGGGUUAAAAA [JL Wide Open 41]”, the figures for the “apparent KD of MS2 coat protein” value in the data set on MS2 coat protein [1] and with MS2 coat protein [2] were 285 nM and 45.3 nM, respectively. With “AAAAAGGCAGGAUAUACGUACAUGUCAAAAGACGUGAAGGGACAUGAGGAUCACCCAUGUAGAAGGGUCAAGAA [JL Stem Breaker 19]”, the “apparent KD of MS2 coat protein” value with MS2 coat protein [1] turned out to be 128 nM; in the data set on MS2 coat protein [2], 61.9 nM. Consider “AAAAAGGGAGGAUAUACAUGAGGAUCACCCAUGUGAAAGACGAAAAAGAGUCUAAAAAGUAGAAGGCCCAAAAA [65%, Moding Exclusion3-cac2, 9]”, for which the entries for the “apparent KD of MS2 coat protein” value with MS2 coat protein [1] and in the data set with MS2 coat protein [2] were 33.5 nM and 43 nM, respectively. “AAAAAGGGAGGAUAUACAUGAGUAGAUCGUGUAAAAAAAAUACAUGAGGAUCACCCAUGUAGAAGGCCCAAAAA [Ecxl-III]”: the “apparent KD of MS2 coat protein” value came to 96.8 nM with MS2 coat protein [1] and 31.5 nM in the data set on MS2 coat protein [2]. As to “AAAAAGGGAGGAUAUGCAAAAAAAAAAAAAAAAAAAAAAAAACAUGAGGAUCACCCAUGUAGAAGGCCCAAAAA [Dora Baggins - Jieux - Exclusion 2]”, the results for the “apparent KD of MS2 coat protein” value with MS2 coat protein [1] and with MS2 coat protein [2] were 32.4 nM and 34.4 nM, respectively. On to “AAAAAGGUAGGAUAUACGAAAAAAAAAGGUGAAAAAAAAAAACAUGAGGAUCACCCAUGUAGAAGGACCAAAAA [Ex 2 sub 1 70% 2]”, for which the entries for the “apparent KD of MS2 coat protein” value in the data set on MS2 coat protein [1] and with MS2 coat protein [2] were 39.3 nM and 76.7 nM, respectively. Regarding “AAAAAGGUAGGAUAUACGAAAAAAAAGGGUAGAAAAAUAAAACAUGAGGAUCACCCAUGUAGAAGGACCAAAAA [Ex 2 sub 1 70% 1]”, the figures for the “apparent KD of MS2 coat protein” value with MS2 coat protein [1] and in the data set with MS2 coat protein [2] were 25.8 nM and 86.5 nM, respectively. In the case of “AAAAAGGUAGGAUAUGCUAAAUAACAUGAAGAAUAAAUAAAACAUGAGGAUCACCCAUGUAGAAGGACCAAAAA [Ex 2 Tesla 1]”, the “apparent KD of MS2 coat protein” value in the data set with MS2 coat protein [1] came out at 25 nM; with MS2 coat protein [2] it was 20 nM. Regarding “AAAAAGUCAGGAUAUACAUGAGGAUCACCCAUGUAAAAAAAAGGGAAAAAAAAAAAGGGUAGAAGGGACGAAAA [Exclusion 3]”, the entries for the “apparent KD of MS2 coat protein” value in the data set with MS2 coat protein [1] and in the data set on MS2 coat protein [2] were 25.3 nM and 28.8 nM, respectively. Consider “AAAAAGUCAGGAUAUACGAAAAAAAAAAAAAAAAAAAAAAAGUAGAAGGGACAUGAGGAUCACCCAUGUAAAAA [Exclusion 4]”, for which the “apparent KD of MS2 coat protein” value in the data set with MS2 coat protein [1] was determined as 88.9 nM; in the data set on MS2 coat protein [2], 27.1 nM. On the same counts, the results for “AAAAAGUCAGGAUAUAUGCGAAAAAUAAAAAAAAUAAAAGCAUAGAAGGGACAUGAGGAUCACCCAUGUUAAAA [Ex 4 May 16]” are 36.6 nM and 26.6 nM. On to “AAAAAGUCAGGAUAUCGGAAAAUAAAAAUAAAAAAAAAAAACGAGAAGGGACAUGAGGAUCACCCAUGUAUGAC [Mat - Exclusion 4 - Mayanna - D113]”, for which the “apparent KD of MS2 coat protein” value with MS2 coat protein [1] is 45.2 nM; with MS2 coat protein [2] it was 39 nM. On the same counts, the results for “AAAAAGUCAGGAUAUCGUAGAAAAAUAUAAAUAAGAAAGUACGAGAAGGGACAUGAGGAUCACCCAUGUAAAAA [Ex 4 #1]” are 50 nM and 36.8 nM. The corresponding values for “AAAAAGUCAGGAUAUGCACAAAAAAAAAUAAAAAAAAAAGUGCAGAAGGGACAUGAGGAUCACCCAUGUAAGAU [Mat - Exclusion 4 - Mayanna - D118]” are 81 nM and 77.2 nM.

With “AAAAAGUCAGGAUAUGCAGACAAAGCAAAAAAGCAAUGUCUGCAGAAGGGACAUGAGGAUCACCCAUGUAAAAA [Ex 4 May 9]”, the results for the “apparent KD of MS2 coat protein” value in the data set on MS2 coat protein [1] and with MS2 coat protein [2] were 57.7 nM and 44.6 nM, respectively.

Regarding “UUUGGGUGGCUGGAGGAUAUUCGAGUGGUUACAUGAGGAUCACCCAUGUGUCGCGCGGUACACGAGGAGAAGGCUGGCGGCCGUU (puzzle: Same State 2)”, the “apparent KD of MS2 coat protein” value in the data set with MS2 coat protein [3] was 37.7 nM.
